Values belong to the binder of their own block, whether it stands above or below them. Bridges are numbered along the chain shown (N, C = ends). Where no end group is shown, it is not given here.
Tests used:
[1] = target: T1, bovine pancreatic trypsin (bovine, UniProt P00760 24-246); assay: ITC, SAP-1 injected into trypsin, 303 K
T1 construct: It was dialyzed into the ITC buffer and flowed over the chip in SPR

[2] = target: T1, bovine pancreatic trypsin; assay: ITC, SAP-1 (1 mM) injected into trypsin (20 µM), 293 K
Method: Figure 7: FIG. 7 provides an ITC analysis of the interaction between SAP-1 and bovine pancreatic trypsin. SAP-1 was dissolved in 20 mM cacadylate (pH 7.0), 20 mM NaCl at a final concentration of 1 mM. Trypsin was dialyzed into the same buffer and was used in the calorimeter cell at a concentration of 20 µM. The temperature was maintained at 20° C. Forty injections of 5 µL each were employed with a 240 second re-equilibrium time between injections.

[3] = target: T1, bovine pancreatic trypsin; assay: isothermal titration calorimetry, 30 °C
Method: Figure 6: FIG. 6 provides an ITC analysis of the interaction between SAP and bovine pancreatic trypsin. SAP was dissolved in 20 mM cacodylate (pH 7.0), 20 mM NaCl at a final concentration of 2 mM. Trypsin was dialyzed into the same buffer and was used in the calorimeter cell at a concentration of 20 µM. No binding is evident throughout the titration. The temperature was maintained at 30° C. Forty injections of 5 µL each were employed with a 240 second re-equilibrium time between injections.
The ability of SAP, SAP-1, and SAP-2 to bind bovine pancreatic trypsin was measured by isothermal titration calorimetry (ITC). […] Under all experimental conditions, there is no detectable binding.

[4] = target: T1, bovine pancreatic trypsin; assay: ITC, SAP-2 (1.0 mM) injected into trypsin (20 µM), 25 °C (FIG. 8)

T1 sequence (P00760 24-246): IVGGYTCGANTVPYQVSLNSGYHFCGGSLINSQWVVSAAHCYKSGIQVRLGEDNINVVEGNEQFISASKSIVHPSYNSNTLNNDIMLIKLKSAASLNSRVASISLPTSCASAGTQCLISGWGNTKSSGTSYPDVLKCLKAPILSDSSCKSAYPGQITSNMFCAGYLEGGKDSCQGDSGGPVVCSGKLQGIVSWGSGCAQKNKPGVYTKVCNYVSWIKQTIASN

Ka [1]: 2.4e+06 M⁻¹
Stoichiometry [1]: 0.99
ΔH [1]: -15.4 kcal/mol
ΔS [1]: -21.1 cal mol^-1 K^-1
Ka [2]: 1.65e+06 M⁻¹
Stoichiometry [2]: 0.975
ΔH [2]: -26.1 kcal/mol
ΔS [2]: -11.6 cal mol^-1 K^-1
B1: SAP-1 (SAP backbone with the PYRIRF insert from Bovine Pancreatic Trypsin Inhibitor) (designed binder)
chain: CPSQPTYPGDPPYRIRFGPVEDLIRFYDNLQQWLNCVTAAC
notes: It was expressed in E. coli; In SPR it was coupled to the chip through the C-terminal cysteine thiol

binding result [3]: no binding
B2: SAP (Synthetic Antibody Peptide), parental peptide backbone (designed binder)
chain: MCPSQPTYPGDPGPVEDLIRFYDNLQQWLNCVTAAC
modifications: disulfide 2-31
notes: Re-engineered avian pancreatic polypeptide with no insert; It was expressed in E. coli from pSAPe and purified; also called SAP peptide; SAP molecule

Ka [4]: 640000 M⁻¹
Stoichiometry [4]: 0.995
ΔH [4]: -31.2 kcal/mol
ΔS [4]: -16.2 cal mol^-1 K^-1
B3: SAP-2 (SAP backbone with the library-selected YKLKY insert) (designed binder)
chain: CPSQPTYPGDPYKLKYGPVEDLIRFYDNLQQWLNCVTAAC
notes: It was expressed in E. coli; In SPR it was coupled to the chip through the C-terminal cysteine thiol; also called recombinant SAP-2

Source: patent publication US6822073 (KIMBERLY CLARK WORLDWIDE, dated 2004)
